Experimental data taken from article PMC4882601, “Binding of Human Fibrinogen to MRP Enhances Streptococcus suis Survival in Host Blood in a αXβ2 Integrin-dependent Manner” (Scientific Reports, 2016).

T1: hisMRP-N (a.a. 48-721, the N-terminus of muramidase-released protein) (Streptococcus suis serotype 2 strain …, UniProt P32653 48-721, biotin (in the far-Western and on the BLI biosensors))
T1 chain: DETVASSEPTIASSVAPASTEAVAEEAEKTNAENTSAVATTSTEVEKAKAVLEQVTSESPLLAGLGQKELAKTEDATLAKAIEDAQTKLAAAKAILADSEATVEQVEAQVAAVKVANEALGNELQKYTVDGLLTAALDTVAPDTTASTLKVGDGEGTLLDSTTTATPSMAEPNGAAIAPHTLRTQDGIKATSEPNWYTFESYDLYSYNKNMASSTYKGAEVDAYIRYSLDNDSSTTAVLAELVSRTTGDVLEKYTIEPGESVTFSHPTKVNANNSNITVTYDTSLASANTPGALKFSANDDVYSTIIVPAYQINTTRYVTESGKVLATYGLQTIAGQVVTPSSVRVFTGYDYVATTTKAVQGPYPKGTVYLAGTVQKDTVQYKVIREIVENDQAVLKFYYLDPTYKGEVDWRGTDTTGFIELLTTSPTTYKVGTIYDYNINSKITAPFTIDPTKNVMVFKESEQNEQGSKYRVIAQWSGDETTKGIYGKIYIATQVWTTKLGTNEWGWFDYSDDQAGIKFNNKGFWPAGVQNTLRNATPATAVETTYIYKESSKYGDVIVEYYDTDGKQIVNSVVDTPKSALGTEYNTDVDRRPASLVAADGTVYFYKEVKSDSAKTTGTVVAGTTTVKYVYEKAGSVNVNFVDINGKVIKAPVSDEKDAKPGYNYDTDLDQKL

T2: human fibrinogen (human, UniProt P02671-2 20-644; P02675 31-491; P02679-2 27-437, biotin on hFg (which chain is not told) in the ELISA with immobilised MRP)
T2 construct: Fibrinogen Aα chain, human (63.5 kDa band); Fibrinogen Bβ chain, human (56 kDa band); Fibrinogen γ chain, human (47 kDa band); Three pairs of Aα, Bβ and γ chains; also called hFg; Fg; source: bought: Merck; copies: 2 + 2 + 2
T2 sequence (looked up) 1: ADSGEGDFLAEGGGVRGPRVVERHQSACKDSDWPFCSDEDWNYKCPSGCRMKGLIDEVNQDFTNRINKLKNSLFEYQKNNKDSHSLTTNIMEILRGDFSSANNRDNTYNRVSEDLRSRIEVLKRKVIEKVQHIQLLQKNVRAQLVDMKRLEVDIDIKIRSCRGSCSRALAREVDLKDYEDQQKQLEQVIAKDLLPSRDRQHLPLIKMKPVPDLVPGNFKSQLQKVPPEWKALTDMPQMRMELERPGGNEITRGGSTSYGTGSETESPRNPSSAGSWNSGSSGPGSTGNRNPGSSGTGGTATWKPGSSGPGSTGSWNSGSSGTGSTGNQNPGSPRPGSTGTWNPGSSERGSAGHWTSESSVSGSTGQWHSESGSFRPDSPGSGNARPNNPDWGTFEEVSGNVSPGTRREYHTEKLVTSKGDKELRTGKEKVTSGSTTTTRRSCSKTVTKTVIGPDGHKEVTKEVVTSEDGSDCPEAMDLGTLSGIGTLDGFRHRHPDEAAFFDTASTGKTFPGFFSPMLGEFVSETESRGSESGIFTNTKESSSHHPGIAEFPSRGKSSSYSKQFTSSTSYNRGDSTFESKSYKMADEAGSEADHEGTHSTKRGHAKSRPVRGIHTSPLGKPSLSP
T2 sequence (looked up) 2: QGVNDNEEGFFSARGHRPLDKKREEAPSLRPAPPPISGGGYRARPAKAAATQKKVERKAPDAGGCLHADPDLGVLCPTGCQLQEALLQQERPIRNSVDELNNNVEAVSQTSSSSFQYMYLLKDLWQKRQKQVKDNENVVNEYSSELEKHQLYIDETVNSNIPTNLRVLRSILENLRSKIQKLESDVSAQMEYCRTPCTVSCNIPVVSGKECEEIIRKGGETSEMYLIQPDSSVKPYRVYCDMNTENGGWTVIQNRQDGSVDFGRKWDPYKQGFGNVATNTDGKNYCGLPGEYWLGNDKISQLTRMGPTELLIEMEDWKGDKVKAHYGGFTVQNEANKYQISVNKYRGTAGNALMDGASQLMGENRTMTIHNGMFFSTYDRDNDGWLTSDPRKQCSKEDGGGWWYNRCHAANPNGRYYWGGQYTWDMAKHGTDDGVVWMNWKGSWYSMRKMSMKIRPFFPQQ
T2 sequence (looked up) 3: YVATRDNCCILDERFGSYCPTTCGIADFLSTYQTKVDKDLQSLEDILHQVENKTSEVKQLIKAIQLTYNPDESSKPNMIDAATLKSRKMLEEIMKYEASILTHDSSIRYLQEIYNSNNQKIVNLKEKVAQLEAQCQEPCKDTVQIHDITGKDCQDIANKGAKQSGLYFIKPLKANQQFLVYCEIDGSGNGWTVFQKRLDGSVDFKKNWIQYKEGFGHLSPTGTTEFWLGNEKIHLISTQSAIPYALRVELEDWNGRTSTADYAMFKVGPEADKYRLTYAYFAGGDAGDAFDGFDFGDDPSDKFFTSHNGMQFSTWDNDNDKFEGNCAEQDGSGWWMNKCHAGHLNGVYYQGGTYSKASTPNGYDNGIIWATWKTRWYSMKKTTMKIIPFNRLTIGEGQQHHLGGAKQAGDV

B1: human fibrinogen (complex)
chain 1: T2 sequence (looked up) 1
chain 2: T2 sequence (looked up) 2
chain 3: T2 sequence (looked up) 3
modifications: biotin on hFg (which chain is not told) in the ELISA with immobilised MRP
B2: hisMRP-N (a.a. 48-721, the N-terminus of muramidase-released protein) (domain or fragment)
chain: T1 chain
modifications: biotin (in the far-Western and on the BLI biosensors)
notes: Muramidase-released protein (MRP) of Streptococcus suis serotype 2 strain 05ZYH33, gene SSU05_0753, residues 48-721; also called hisMRP-N_(48-721); source: cloned into pET-28a, expressed, purified by Ni-chelating chromatography

How the values were obtained:
[1] = target: T1, hisMRP-N (a.a. 48-721, the N-terminus …); assay: BLI
human fibrinogen = target: T2, human fibrinogen; assay: BLI; biotinylated MRP-N proteins immobilised on streptavidin biosensors, hFg, Fg-D or Fg-E as analyte, PBST, 1:1 binding model; conditions: both partners purified

| Binder | koff [1] [s⁻¹] | Kd (human fibrinogen) [nM] |
| --- | --- | --- |
| B1 | 0.0989 | – |
| B2 | – | 340 |
